# Earlier results in article PMC10172704 (Poultry Science, 2023).
# Like-named read-outs stand apart in the source and are kept apart here.
# B1: Milk lactoferrin: milk lactoferrin; literature MICs, also after proteolytic digestion by pepsin (protein, UniProt P02788 20-710, looked up)
# Lactotransferrin: GRRRSVQWCAVSQPEATKCFQWQRNMRKVRGPPVSCIKRDSPIQCIQAIAENRADAVTLDGGFIYEAGLAPYKLRPVAAEVYGTERQPRTHYYAVAVVKKGGSFQLNELQGLKSCHTGLRRTAGWNVPIGTLRPFLNWTGPPEPIEAAVARFFSASCVPGADKGQFPNLCRLCAGTGENKCAFSSQEPYFSYSGAFKCLRDGAGDVAFIRESTVFEDLSDEAERDEYELLCPDNTRKPVDKFKDCHLARVPSHAVVARSVNGKEDAIWNLLRQAQEKFGKDKSPKFQLFGSPSGQKDLLFKDSAIGFSRVPPRIDSGLYLGSGYFTAIQNLRKSEEEVAARRARVVWCAVGEQELRKCNQWSGLSEGSVTCSSASTTEDCIALVLKGEADAMSLDGGYVYTAGKCGLVPVLAENYKSQQSSDPDPNCVDRPVEGYLAVAVVRRSDTSLTWNSVKGKKSCHTAVDRTAGWNIPMGLLFNQTGSCKFDEYFSQSCAPGSDPRSNLCALCIGDEQGENKCVPNSNERYYGYTGAFRCLAENAGDVAFVKDVTVLQNTDGNNNEAWAKDLKLADFALLCLDGKRKPVTEARSCHLAMAPNHAVVSRMDKVERLKQVLLHQQAKFGRNGSDCPDKFCLFQSETKNLLFNDNTECLARLHGKTTYEKYLGPQYVAGITNLKKCSTSPLLEACEFLRK
# How the values were obtained:
# Staphylococcus aureus = conditions: ref Wang et al., 2020
# Escherichia coli = conditions: ref Wang et al., 2020
molecule,measurement,setting,value
B1,MIC,Staphylococcus aureus,260 mg/mL
same,MIC,Escherichia coli; after proteolytic digestion by pepsin,65 mg/mL
same,MIC,Escherichia coli,130 mg/mL
